According to patent publication US10647739B2, “Flavonoids O-A-glucosylated on the B cycle, method for the production thereof and uses” (Institut National de la Recherche Agronomique, priority 2014, dated 2020):

B1: V331L: ASNp amylosucrase single mutant (protein, UniProt Q9ZEU2 1-636, looked up, variant V331L)
Amylosucrase: MLTPTQQVGLILQYLKTRILDIYTPEQRAGIEKSEDWRQFSRRMDTHFPKLMNELDSVYGNNEALLPMLEMLLAQAWQSYSQRNSSLKDIDIARENNPDWILSNKQVGGVCYVDLFAGDLKGLKDKIPYFQELGLTYLHLMPLFKCPEGKSDGGYAVSSYRDVNPALGTIGDLREVIAALHEAGISAVVDFIFNHTSNEHEWAQRCAAGDPLFDNFYYIFPDRRMPDQYDRTLREIFPDQHPGGFSQLEDGRWVWTTFNSFQWDLNYSNPWVFRAMAGEMLFLANLGVDILRMDAVAFIWKQMGTSCENLPQAHALIRAFNAVMRIAAPALFFKSEAIVHPDQVVQYIGQDECQIGYNPLQMALLWNTLATREVNLLHQALTYRHNLPEHTAWVNYVRSHDDIGWTFADEDAAYLGISGYDHRQFLNRFFVNRFDGSFARGVPFQYNPSTGDCRVSGTAAALVGLAQDDPHAVDRIKLLYSIALSTGGLPLIYLGDEVGTLNDDDWSQDSNKSDDSRWAHRPRYNEALYAQRNDPSTAAGQIYQGLRHMIAVRQSNPRFDGGRLVTFNTNNKHIIGYIRNNALLAFGNFSEYPQTVTAHTLQAMPFKAHDLIGGKTVSLNQDLTLQPYQVMWLEIA
B2: V331Q: ASNp amylosucrase single mutant (protein, UniProt Q9ZEU2 1-636, looked up, variant V331Q)
Amylosucrase: MLTPTQQVGLILQYLKTRILDIYTPEQRAGIEKSEDWRQFSRRMDTHFPKLMNELDSVYGNNEALLPMLEMLLAQAWQSYSQRNSSLKDIDIARENNPDWILSNKQVGGVCYVDLFAGDLKGLKDKIPYFQELGLTYLHLMPLFKCPEGKSDGGYAVSSYRDVNPALGTIGDLREVIAALHEAGISAVVDFIFNHTSNEHEWAQRCAAGDPLFDNFYYIFPDRRMPDQYDRTLREIFPDQHPGGFSQLEDGRWVWTTFNSFQWDLNYSNPWVFRAMAGEMLFLANLGVDILRMDAVAFIWKQMGTSCENLPQAHALIRAFNAVMRIAAPAQFFKSEAIVHPDQVVQYIGQDECQIGYNPLQMALLWNTLATREVNLLHQALTYRHNLPEHTAWVNYVRSHDDIGWTFADEDAAYLGISGYDHRQFLNRFFVNRFDGSFARGVPFQYNPSTGDCRVSGTAAALVGLAQDDPHAVDRIKLLYSIALSTGGLPLIYLGDEVGTLNDDDWSQDSNKSDDSRWAHRPRYNEALYAQRNDPSTAAGQIYQGLRHMIAVRQSNPRFDGGRLVTFNTNNKHIIGYIRNNALLAFGNFSEYPQTVTAHTLQAMPFKAHDLIGGKTVSLNQDLTLQPYQVMWLEIA
B3: V331P: ASNp amylosucrase single mutant (protein, UniProt Q9ZEU2 1-636, looked up, variant V331P)
Amylosucrase: MLTPTQQVGLILQYLKTRILDIYTPEQRAGIEKSEDWRQFSRRMDTHFPKLMNELDSVYGNNEALLPMLEMLLAQAWQSYSQRNSSLKDIDIARENNPDWILSNKQVGGVCYVDLFAGDLKGLKDKIPYFQELGLTYLHLMPLFKCPEGKSDGGYAVSSYRDVNPALGTIGDLREVIAALHEAGISAVVDFIFNHTSNEHEWAQRCAAGDPLFDNFYYIFPDRRMPDQYDRTLREIFPDQHPGGFSQLEDGRWVWTTFNSFQWDLNYSNPWVFRAMAGEMLFLANLGVDILRMDAVAFIWKQMGTSCENLPQAHALIRAFNAVMRIAAPAPFFKSEAIVHPDQVVQYIGQDECQIGYNPLQMALLWNTLATREVNLLHQALTYRHNLPEHTAWVNYVRSHDDIGWTFADEDAAYLGISGYDHRQFLNRFFVNRFDGSFARGVPFQYNPSTGDCRVSGTAAALVGLAQDDPHAVDRIKLLYSIALSTGGLPLIYLGDEVGTLNDDDWSQDSNKSDDSRWAHRPRYNEALYAQRNDPSTAAGQIYQGLRHMIAVRQSNPRFDGGRLVTFNTNNKHIIGYIRNNALLAFGNFSEYPQTVTAHTLQAMPFKAHDLIGGKTVSLNQDLTLQPYQVMWLEIA
B4: V331M: ASNp amylosucrase single mutant (protein, UniProt Q9ZEU2 1-636, looked up, variant V331M)
Amylosucrase: MLTPTQQVGLILQYLKTRILDIYTPEQRAGIEKSEDWRQFSRRMDTHFPKLMNELDSVYGNNEALLPMLEMLLAQAWQSYSQRNSSLKDIDIARENNPDWILSNKQVGGVCYVDLFAGDLKGLKDKIPYFQELGLTYLHLMPLFKCPEGKSDGGYAVSSYRDVNPALGTIGDLREVIAALHEAGISAVVDFIFNHTSNEHEWAQRCAAGDPLFDNFYYIFPDRRMPDQYDRTLREIFPDQHPGGFSQLEDGRWVWTTFNSFQWDLNYSNPWVFRAMAGEMLFLANLGVDILRMDAVAFIWKQMGTSCENLPQAHALIRAFNAVMRIAAPAMFFKSEAIVHPDQVVQYIGQDECQIGYNPLQMALLWNTLATREVNLLHQALTYRHNLPEHTAWVNYVRSHDDIGWTFADEDAAYLGISGYDHRQFLNRFFVNRFDGSFARGVPFQYNPSTGDCRVSGTAAALVGLAQDDPHAVDRIKLLYSIALSTGGLPLIYLGDEVGTLNDDDWSQDSNKSDDSRWAHRPRYNEALYAQRNDPSTAAGQIYQGLRHMIAVRQSNPRFDGGRLVTFNTNNKHIIGYIRNNALLAFGNFSEYPQTVTAHTLQAMPFKAHDLIGGKTVSLNQDLTLQPYQVMWLEIA
B5: V331N: ASNp amylosucrase single mutant (protein, UniProt Q9ZEU2 1-636, looked up, variant V331N)
Amylosucrase: MLTPTQQVGLILQYLKTRILDIYTPEQRAGIEKSEDWRQFSRRMDTHFPKLMNELDSVYGNNEALLPMLEMLLAQAWQSYSQRNSSLKDIDIARENNPDWILSNKQVGGVCYVDLFAGDLKGLKDKIPYFQELGLTYLHLMPLFKCPEGKSDGGYAVSSYRDVNPALGTIGDLREVIAALHEAGISAVVDFIFNHTSNEHEWAQRCAAGDPLFDNFYYIFPDRRMPDQYDRTLREIFPDQHPGGFSQLEDGRWVWTTFNSFQWDLNYSNPWVFRAMAGEMLFLANLGVDILRMDAVAFIWKQMGTSCENLPQAHALIRAFNAVMRIAAPANFFKSEAIVHPDQVVQYIGQDECQIGYNPLQMALLWNTLATREVNLLHQALTYRHNLPEHTAWVNYVRSHDDIGWTFADEDAAYLGISGYDHRQFLNRFFVNRFDGSFARGVPFQYNPSTGDCRVSGTAAALVGLAQDDPHAVDRIKLLYSIALSTGGLPLIYLGDEVGTLNDDDWSQDSNKSDDSRWAHRPRYNEALYAQRNDPSTAAGQIYQGLRHMIAVRQSNPRFDGGRLVTFNTNNKHIIGYIRNNALLAFGNFSEYPQTVTAHTLQAMPFKAHDLIGGKTVSLNQDLTLQPYQVMWLEIA
B6: V331R: ASNp amylosucrase single mutant (protein, UniProt Q9ZEU2 1-636, looked up, variant V331R)
Amylosucrase: MLTPTQQVGLILQYLKTRILDIYTPEQRAGIEKSEDWRQFSRRMDTHFPKLMNELDSVYGNNEALLPMLEMLLAQAWQSYSQRNSSLKDIDIARENNPDWILSNKQVGGVCYVDLFAGDLKGLKDKIPYFQELGLTYLHLMPLFKCPEGKSDGGYAVSSYRDVNPALGTIGDLREVIAALHEAGISAVVDFIFNHTSNEHEWAQRCAAGDPLFDNFYYIFPDRRMPDQYDRTLREIFPDQHPGGFSQLEDGRWVWTTFNSFQWDLNYSNPWVFRAMAGEMLFLANLGVDILRMDAVAFIWKQMGTSCENLPQAHALIRAFNAVMRIAAPARFFKSEAIVHPDQVVQYIGQDECQIGYNPLQMALLWNTLATREVNLLHQALTYRHNLPEHTAWVNYVRSHDDIGWTFADEDAAYLGISGYDHRQFLNRFFVNRFDGSFARGVPFQYNPSTGDCRVSGTAAALVGLAQDDPHAVDRIKLLYSIALSTGGLPLIYLGDEVGTLNDDDWSQDSNKSDDSRWAHRPRYNEALYAQRNDPSTAAGQIYQGLRHMIAVRQSNPRFDGGRLVTFNTNNKHIIGYIRNNALLAFGNFSEYPQTVTAHTLQAMPFKAHDLIGGKTVSLNQDLTLQPYQVMWLEIA
B7: V331S: ASNp amylosucrase single mutant (protein, UniProt Q9ZEU2 1-636, looked up, variant V331S)
Amylosucrase: MLTPTQQVGLILQYLKTRILDIYTPEQRAGIEKSEDWRQFSRRMDTHFPKLMNELDSVYGNNEALLPMLEMLLAQAWQSYSQRNSSLKDIDIARENNPDWILSNKQVGGVCYVDLFAGDLKGLKDKIPYFQELGLTYLHLMPLFKCPEGKSDGGYAVSSYRDVNPALGTIGDLREVIAALHEAGISAVVDFIFNHTSNEHEWAQRCAAGDPLFDNFYYIFPDRRMPDQYDRTLREIFPDQHPGGFSQLEDGRWVWTTFNSFQWDLNYSNPWVFRAMAGEMLFLANLGVDILRMDAVAFIWKQMGTSCENLPQAHALIRAFNAVMRIAAPASFFKSEAIVHPDQVVQYIGQDECQIGYNPLQMALLWNTLATREVNLLHQALTYRHNLPEHTAWVNYVRSHDDIGWTFADEDAAYLGISGYDHRQFLNRFFVNRFDGSFARGVPFQYNPSTGDCRVSGTAAALVGLAQDDPHAVDRIKLLYSIALSTGGLPLIYLGDEVGTLNDDDWSQDSNKSDDSRWAHRPRYNEALYAQRNDPSTAAGQIYQGLRHMIAVRQSNPRFDGGRLVTFNTNNKHIIGYIRNNALLAFGNFSEYPQTVTAHTLQAMPFKAHDLIGGKTVSLNQDLTLQPYQVMWLEIA

Legend:
[1] = apigenin glucosylation acceptor reaction with recombinant glucansucrases (microplate screening); type: biochemical; settings: sucrose 146 mM, apigenin 2.5 mM, 3% DMSO, 30° C., 24 h; HPLC-UV 340 nm peak areas
Protocol: (§1) The enzymatic extracts obtained are used to carry out the flavonoid glucosylation enzymatic screening reactions. The enzymatic activity of each centrifuged cell lysate is evaluated in the microplate format, by final weight after 30 minutes incubation in the presence of a final concentration of 146 mM of sucrose, by assaying the reducing sugars with 3,5-dinitrosalicylic acid (DNS). Finally, after dilution in ultrapure water, the absorbance is read at 540 nm.
(§2) The flavonoid acceptor reactions are then carried out in deep-well microplates, in a volume of 300 μl, at final concentrations of sucrose of 146 mM and of flavonoid of 2.5 mM (apigenin) or 5 mM (naringenin) (initially dissolved in 100% DMSO), and 140 μl of centrifuged cell lysate.
(§3) The final DMSO concentration in the reaction medium is 3% (v/v).
(§4) The incubation is carried out at 30° C. and at 700 rpm. After 24 hours, the enzymes are denatured at 95° C. for 15 minutes. These microplates are stored at −80° C. with a view to rapid evaluation of the flavonoid glucosylation by liquid-phase chromatography coupled to mass spectrometry (HPLC-MS or LC-MS).
(§5) With a view to their analyses by HPLC-MS, the extensively homogenized reaction media are diluted to 1/30th in DMSO. The separation of the flavonoids and of their glucosylated forms is carried out in reverse phase with a ProntoSlL Eurobond® 53×3.0 mm 120-3-C18-AQ column (porosity of 120 Å, particle size of 3 μm, C18 grafting, Bischoff Chromatography, Germany).
(§6) The flavonoid glucosylation efficiency was determined from the following formula: Glucosylation efficiency=(Σ(area of the peak of glucosylated flavonoid(s)))/(Σ(area of the peak of glucosylated flavonoid(s))+area of the peak of residual aglycone flavonoid)×100
(§7) The flavonoid glucosylation efficiencies, expressed as a percentage, were calculated from the areas of the peaks of the various products analyzed, as described in example 1, by HPLC with a UV detector (340 nm) after 24 h of reaction.

[2] = naringenin glucosylation acceptor reaction with recombinant glucansucrases (microplate screening); type: biochemical; settings: sucrose 146 mM, naringenin 5 mM, 3% DMSO, 30° C., 24 h; HPLC-UV 340 nm peak areas
Protocol: as §1, §2, §3, §4, §5, §6
as §7, with “The flavonoid glucosylation efficiency was determined from the formula set out in example 2. The” for “The”, “(λ340 nm),” for “(340 nm)”

Row | Molecule | apigenin glucosylation efficiency [1] | naringenin glucosylation efficiency [2]
1 | B1 | 0.3% | 0.0%
2 | B2 | 0.2% | 6.8%
3 | B3 | 0.0% | 0.0%
4 | B4 | 0.1% | 0.0%
5 | B5 | 1.0% | 0.0%
6 | B6 | 0.2% | 0.0%
7 | B7 | 0.4% | 6.7%
